In US20070082369A1:

Columns and labels:
[1] = target: E. coli-expressed recombinant Der f 1 protein PDerf1303c (Dermatophagoides farinae) (UniProt P16311); assay: sandwich ELISA, capture MAb 6A8, detection biotinylated MAb 4C1; 3.1 ng protein per well
[2] = target: Pichia-expressed recombinant Der f 1 protein PDerf1303b (Dermatophagoides farinae) (UniProt P16311); assay: as above
[3] = target: Heska native Derf1 (Dermatophagoides farinae) (UniProt P16311); assay: as above
[4] = target: E. coli-expressed recombinant Der f 1 protein PDerf1303c (Dermatophagoides farinae) (UniProt P16311); assay: sandwich ELISA, capture MAb 6A8, detection biotinylated MAb 4C1; 1.5 ng protein per well
[5] = target: Pichia-expressed recombinant Der f 1 protein PDerf1303b (Dermatophagoides farinae) (UniProt P16311); assay: as above
[6] = target: Heska native Derf1 (Dermatophagoides farinae) (UniProt P16311); assay: as above
[7] = target: E. coli-expressed recombinant Der f 1 protein PDerf1303c (Dermatophagoides farinae) (UniProt P16311); assay: sandwich ELISA, capture MAb 6A8, detection biotinylated MAb 4C1; 50 ng protein per well
[8] = target: Pichia-expressed recombinant Der f 1 protein PDerf1303b (Dermatophagoides farinae) (UniProt P16311); assay: as above
[9] = target: Heska native Derf1 (Dermatophagoides farinae) (UniProt P16311); assay: as above
[10] = target: E. coli-expressed recombinant Der f 1 protein PDerf1303c (Dermatophagoides farinae) (UniProt P16311); assay: sandwich ELISA, capture MAb 6A8, detection biotinylated MAb 4C1; 2.5 ng protein per well
[11] = target: Pichia-expressed recombinant Der f 1 protein PDerf1303b (Dermatophagoides farinae) (UniProt P16311); assay: as above
[12] = target: Heska native Derf1 (Dermatophagoides farinae) (UniProt P16311); assay: as above
[13] = target: E. coli-expressed recombinant Der f 1 protein PDerf1303c (Dermatophagoides farinae) (UniProt P16311); assay: sandwich ELISA, capture MAb 6A8, detection biotinylated MAb 4C1; 6.25 ng protein per well
[14] = target: Pichia-expressed recombinant Der f 1 protein PDerf1303b (Dermatophagoides farinae) (UniProt P16311); assay: as above
[15] = target: Heska native Derf1 (Dermatophagoides farinae) (UniProt P16311); assay: as above
[16] = target: E. coli-expressed recombinant Der f 1 protein PDerf1303c (Dermatophagoides farinae) (UniProt P16311); assay: sandwich ELISA, capture MAb 6A8, detection biotinylated MAb 4C1; 0.75 ng protein per well
[17] = target: Pichia-expressed recombinant Der f 1 protein PDerf1303b (Dermatophagoides farinae) (UniProt P16311); assay: as above
[18] = target: Heska native Derf1 (Dermatophagoides farinae) (UniProt P16311); assay: as above
[19] = target: E. coli-expressed recombinant Der f 1 protein PDerf1303c (Dermatophagoides farinae) (UniProt P16311); assay: sandwich ELISA, capture MAb 6A8, detection biotinylated MAb 4C1; 25 ng protein per well
[20] = target: Pichia-expressed recombinant Der f 1 protein PDerf1303b (Dermatophagoides farinae) (UniProt P16311); assay: as above
[21] = target: Heska native Derf1 (Dermatophagoides farinae) (UniProt P16311); assay: as above

OD [1]: 503 OD x1000
OD [2]: 1540 OD x1000
OD [3]: 2220 OD x1000
OD [4]: 268 OD x1000
OD [5]: 916 OD x1000
OD [6]: 2040 OD x1000
OD [7]: 1980 OD x1000
OD [8]: 2150 OD x1000
OD [9]: 2180 OD x1000
OD [10]: 1370 OD x1000
OD [11]: 2090 OD x1000
OD [12]: 2290 OD x1000
OD [13]: 890 OD x1000
OD [14]: 1960 OD x1000
OD [15]: 2200 OD x1000
OD [16]: 136 OD x1000
OD [17]: 405 OD x1000
OD [18]: 1740 OD x1000
OD [19]: 1770 OD x1000
OD [20]: 2160 OD x1000
OD [21]: 2140 OD x1000
Substance: anti-Der f 1 protein monoclonal antibody 6A8
